From the supplement of paper PMC10126150
± gives the standard deviation of the averaged measurements.

Test system: ATP
Test: switch fluorescence ratio, 500 uM ATP over buffer (Cy3 cluster intensity, sum of 5 cycles each) (fold (ratio)); higher = stronger signal-on switching upon ATP binding; sequences stand for … in TCGTCGGCAGCGTCAGATGTGTATAAGAGACAGTTTTTTTTTTTTTTTTTTTTTTTTT…TC
Conditions: aptamer strand: ATP DNA aptamer (quencher-CACCTGGGGGAGTATTGCGGAGGAAGG + anchor), 100 nM annealed; ATP concentration: 500 uM
Procedure, shortened: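 Cy3-labelled switching-strand clusters on a modified Illumina MiSeq flow-cell were annealed to 100 nM quencher-labelled ATP aptamer, imaged in selection buffer, then imaged after 15 min with 500 uM ATP at 22 °C. Five buffer/ATP cycles ran, with NaOH stripping and re-annealing between them. The fluorescence ratio is summed target-cycle over summed buffer-cycle Cy3 intensity per cluster, averaged per switch-domain sequence. Clusters outside 100-1000 RFU were excluded.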
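Also: ATP exposure 15 min at 22 °C before imaging.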

Sequence | switch fluorescence ratio
GAATAGGGTA | 0.98 ± 0.018
GAATAGTGGG | 1.006 ± 0.005
GAATATATAG | 0.965 ± 0.011
GAATATTGAG | 0.99 ± 0.019
GAATCATAGA | 1.004 ± 0.0094
GAATCCGCCC | 2.85 ± 0.74
GAATCGTCG | 0.983 ± 0.025
GAATGGAGAA | 0.992 ± 0.078
GAATGGAGTA | 1.04 ± 0.039
GAATGGATGC | 1.01 ± 0.0064
GAATGGCCTT | 0.9949 ± 0.0072
GAATGGGGTG | 1.02 ± 0.041
GAATGGTTTC | 0.9947 ± 0.0053
GAATGTGGGC | 0.955 ± 0.028
GAATGTTGTT | 0.9476 ± 0.0092
GAATTACGGG | 1.02 ± 0.023
GAATTAGACG | 0.977 ± 0.01
GAATTAGGTT | 1.01 ± 0.077
GAATTATGCC | 0.977 ± 0.021
GAATTGAGGG | 0.97 ± 0.054
GAATTGGT | 1.01 ± 0.012
GAATTGGTTG | 1 ± 0.04

Sequence | switch fluorescence ratio
GAATTGTTGT | 1 ± 0.02
GAATTTAAGT | 1.009 ± 0.0048
GAATTTACCT | 1.2 ± 0.039
GAATTTAGGT | 0.996 ± 0.028
GAATTTATAT | 0.998 ± 0.0032
GAATTTGAGA | 0.997 ± 0.019
GAATTTGATG | 1 ± 0.042
GACAAAGCGG | 1.07 ± 0.041
GACAAAGGGC | 1.08 ± 0.027
GACACCACAG | 1.162 ± 0.0035
GACACCATTC | 1.13 ± 0.017
GACACTGGTA | 1 ± 0.027
GACACTTGCT | 0.99 ± 0.035
GACAGAATGT | 0.976 ± 0.023
GACAGCAAAT | 1.406 ± 0.0043
GACAGCCTTA | 1.01 ± 0.0069
GACAGCGCTA | 1.01 ± 0.042
GACAGTAGGG | 1 ± 0.043
GACAGTGGTT | 1.05 ± 0.059
GACATATACA | 1.07 ± 0.025
GACATGAGTT | 0.984 ± 0.026
GACATGGCTT | 0.975 ± 0.011

Sequence | switch fluorescence ratio
GACATGTGGC | 1.03 ± 0.037
GACATGTTTT | 1.039 ± 0.0097
GACATTTGCA | 1.03 ± 0.023
GACCAAGTCA | 0.997 ± 0.026
GACCATGTAC | 1.48 ± 0.1
GACCCCGATT | 1.05 ± 0.022
GACCCTATAA | 1.11 ± 0.066
GACCCTTAGA | 1.01 ± 0.011
GACCGAAAAT | 1.055 ± 0.0015
GACCGCATTT | 1.68 ± 0.46
GACCGGCATG | 1.01 ± 0.024
GACCGGCGGT | 0.996 ± 0.035
GACCGTGGGG | 1 ± 0.027
GACCTAGCTA | 1.14 ± 0.053
GACCTCATTT | 1.04 ± 0.032
GACCTGGGTC | 1.01 ± 0.0023
GACGAACATT | 1.18 ± 0.21
GACGAAGTTG | 1.01 ± 0.029
GACGAATTGG | 0.997 ± 0.021
GACGACGGTT | 1.55 ± 0.1
GACGAGCCAG | 1.002 ± 0.0066
GACGATAGTT | 0.977 ± 0.026

Sequence | switch fluorescence ratio
GACGATTGTT | 0.988 ± 0.021
GACGCATCTA | 3.35 ± 0.36
GACGCGAGTT | 1.09 ± 0.022
GACGCTAAAG | 1.08 ± 0.029
GACGGACTTT | 1.143 ± 0.006
GACGGAGGCT | 1.04 ± 0.042
GACGGCAATG | 1.05 ± 0.032
GACGGCGCAG | 1.06 ± 0.14
GACGGCGGGC | 0.989 ± 0.023
GACGGGGGAT | 1.081 ± 0.0031
GACGGGGTGC | 1.3 ± 0.24
GACGGGTGTC | 0.967 ± 0.012
GACGGGTTGG | 0.992 ± 0.045
GACGGGTTTG | 0.9915 ± 0.0074
GACGGTTGGG | 0.983 ± 0.026
GACGGTTTAG | 1.04 ± 0.058
GACGTAGACA | 1.042 ± 0.01
GACGTCGGTC | 0.9984 ± 0.0089
GACGTGCAGG | 1.07 ± 0.11
